Source: patent US20190315838A1 (MIT, published 2019)
Numbering of substitutions follows the chain as printed.

B1: fusion loop targeting pan-flavivirus antibody 4G2 (antibody, V domains shown)
VH: EVQLQQSGPELVKPGTSVKISCKTSGYTFTEYTIHWVKQSHGKSLAWIGGIDPNSGGTNYSPNFKGKATLTVDKSSSTAYMDLRSLSSEDSAVYFCARIYHYDGYFDVWGAGTAVTVSS
VL: DIKMTQSPSSMYASLGERVTITCKASQDINSYLTWFQQKPGKSPKTLIYRANRLIDGVPSRFSGSGSGQDYSLTISSLDYEDMGIYYCLQYDEFPPTFGGGTKLEIKR
B2: mAb 7 (antibody, V domains shown)
VH: EVQLLESGGGLVQPGGSLRLSCAASGFSFSTYSMHWVRQAPGKGLEWVSAISGEGDSAYYADSVKGRFEISRDNSKNTLYLQMNKVRAEDTAVYYCVGGYSNFYYYYTMDAWGQGTMVTVSS
VL: DIVMTQSPASLSLSPGERATLSCRATQSIVTFLAWYQQKPGQAPRLLIYDASTNASGIPARFSGSRSGTDFTLTITRLEPEDFAVYYCQQRYNWPPYSFGQGTKLEIK
notes: also called VH.2 / VL.4
B3: mAb 8 (antibody, V domains shown)
VH: B2 VH with E69T
VL: B2 VL with V30S, N54R
notes: also called VH.1 / VL.2
B4: mAb 3 (antibody, V domains shown)
VH: EVQLVESGGGLVQPGGSLRLSCSASGFTFSTYSMHWVRQAPGKGLEYVSAITGEGDSAFYADSVKGRFTISRDNSKNTLYFEMNSLRPEDTAVYYCVGGYSNFYYYYTMDVWGQGTTVTVSS
VL: EIVLTQSPATLSLSPGERATLSCRASQSISTFLAWYQHKPGQAPRLLIYDASTRATGVPARFSGSRSGTDFTLTISTLEPEDFAVYYCQQRYNWPPYTFGQGTKVEIK
notes: also called VH.4 / VL.3
B5: mAb 6 (antibody, V domains shown)
VH: B4 VH with T28S, V111A, T117S
VL: B4 VL with T10S, S26T, T56S, T77S, T98S
notes: also called VH.3 / VL.1

What was measured:
[1] = biological target: T1, Zika virus envelope protein, strain ILM (Brazil Paraiba 2015) (Zika virus strain ILM (Brazil Paraiba …))
T1 construct: also called Zika strain ILM; Zika virus EP

[2] = biological target: T2, Zika virus envelope protein, strain MR766-NIID (Uganda 1947) (Zika virus strain MR766-NIID (Uganda …, UniProt Q32ZE1 291-790))
[3] = biological target: T2, Zika virus envelope protein, strain …; remark: listed apart in the source
[4] = biological target: Zika virus envelope protein, strain H/PF/2013 (French Polynesia 2013) (Zika virus strain H/PF/2013 (French …, UniProt A0A024B7W1 291-794)); experiment: cell-based or functional assay
[5] = biological target: T1, Zika virus envelope protein, strain ILM …; experiment: cell-based or functional assay

Binder	Kd [1] [µg/mL]	Kd [2] [µg/mL]	EC50 (read off the curve) [3] [µg/mL]	ADE, viral titers at peak enhancement in THP1.2S cells [4] [fold]	PRNT50 [4] [µg/mL]	PRNT50 [5] [µg/mL]
B1	6.41					
B2	5.21	0.0265	~0.03			
B3	19.3		~0.03	≥ 3	5.09	5.12
B4		0.0248	~0.8			
B5	3.85		~0.03			0.0597
